# The supplement of paper PMC9170038
# System: K4 kissing-loop RNA reporter
# Test: apparent KD of K4 kissing-loop reporter; higher = weaker reporter binding
# Details: Eterna round: R107
# Method: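 RNA-MaP round R107: designed RNA switches with theophylline, tryptophan, arginine or FMN aptamers are transcribed on-chip within common flanks. They are titrated with a labelled K4 kissing-loop RNA reporter in RNA-MaP buffer (100 mM Tris pH 7.5, 80 mM KCl, 4 mM MgCl2), without ligand or with the indicated ligand. Median apparent KD per design.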
# [1] = input ligand: theophylline 20 uM
# [2] = input ligand: tryptophan 2.4 mM
# 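Further: bound reporter read as fluorescence of individual clusters on recovered sequencing chips by microscopy, with normalized cluster intensities fitted with a binding model.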
sequence,measurement,setting,value
AGUGAUGUGGGAAGGAGCGGUAUAAGAAUUCAGUGAUGUUGAAGUGUUGCUGUAAUAAAGAGCCAGGUAGGUCGCCUAGAUGUUA [KL-XARG B30],apparent KD of K4 kissing-loop reporter,input ligand: FMN 200 uM,811 nM
same,apparent KD of K4 kissing-loop reporter,input ligand: arginine 13.2 mM,775 nM
same,apparent KD of K4 kissing-loop reporter,input ligand: none,940 nM
same,apparent KD of K4 kissing-loop reporter,[1],1120 nM
same,apparent KD of K4 kissing-loop reporter,[2],562 nM
CGCGUUGGUUGAGAGGUUGGCGCGAAUGAUACCAGUAUAUAAGAAUACCCUUGGCAGCAUAAGAAAGAUAUAGUGAUGUUGUAUA [SSTheophA.I],apparent KD of K4 kissing-loop reporter,input ligand: FMN 200 uM,469 nM
same,apparent KD of K4 kissing-loop reporter,input ligand: arginine 13.2 mM,232 nM
same,apparent KD of K4 kissing-loop reporter,input ligand: none,454 nM
same,apparent KD of K4 kissing-loop reporter,[1],289 nM
same,apparent KD of K4 kissing-loop reporter,[2],420 nM
GGGAGGAGUGGUGUUGAUUAGGGAGCGGAAGGAGCGCCGAAGAAGGCAGGUAGGUCGCCGGAAUAUAGUGAUGUUAUAUAGAGGG [ExArg.G],apparent KD of K4 kissing-loop reporter,input ligand: FMN 200 uM,304 nM
same,apparent KD of K4 kissing-loop reporter,input ligand: arginine 13.2 mM,211 nM
same,apparent KD of K4 kissing-loop reporter,input ligand: none,270 nM
same,apparent KD of K4 kissing-loop reporter,[1],168 nM
same,apparent KD of K4 kissing-loop reporter,[2],201 nM
UUCUAACACACCGAUACCAGAGCCCAGUGAUGUUGGGCCUAGGUCGGAUGCUCACUGACGCUCCCUUGGCAGCGGUGGGCUAACC [Arreisve],apparent KD of K4 kissing-loop reporter,input ligand: FMN 200 uM,127 nM
same,apparent KD of K4 kissing-loop reporter,input ligand: arginine 13.2 mM,112 nM
same,apparent KD of K4 kissing-loop reporter,input ligand: none,116 nM
same,apparent KD of K4 kissing-loop reporter,[1],110 nM
same,apparent KD of K4 kissing-loop reporter,[2],114 nM
UAAGGGUUAUGUCCUCGGUGCGAAGAGCUCCGAGGACCGGUACGGCCGCCACUCGGAAGUUCUGAGUGAGGGAGUGAUGUUCCCU [Skye_Ex_TA],apparent KD of K4 kissing-loop reporter,input ligand: FMN 200 uM,312 nM
same,apparent KD of K4 kissing-loop reporter,input ligand: arginine 13.2 mM,291 nM
same,apparent KD of K4 kissing-loop reporter,input ligand: none,359 nM
same,apparent KD of K4 kissing-loop reporter,[1],315 nM
same,apparent KD of K4 kissing-loop reporter,[2],306 nM
UGAUAGGACAGAAGGAGCGGGAGUGAUGUUCCCAAAAUGGAAGGUCGACAAAGUCGACCCUCCCAGGUAGGUCGCUGUCCUAUCU [ArgBX 6 #SwitchBubble #StaticStem],apparent KD of K4 kissing-loop reporter,input ligand: FMN 200 uM,91.3 nM
same,apparent KD of K4 kissing-loop reporter,input ligand: arginine 13.2 mM,101 nM
same,apparent KD of K4 kissing-loop reporter,input ligand: none,99.6 nM
same,apparent KD of K4 kissing-loop reporter,[1],99.2 nM
same,apparent KD of K4 kissing-loop reporter,[2],86.7 nM
UAAUCACUCGAACUGCAAGUACGAGUGGAACGAGGACCGGUACGGCCGCCACUCGAUAACUUGCAGUGAUGUUGCAAGUAAGAAU [(T)''-(K)'-(T)'-(T1)-(T2)-(K1)-(K2)_Design7],apparent KD of K4 kissing-loop reporter,input ligand: FMN 200 uM,60.5 nM
same,apparent KD of K4 kissing-loop reporter,input ligand: arginine 13.2 mM,52.4 nM
same,apparent KD of K4 kissing-loop reporter,input ligand: none,57.2 nM
same,apparent KD of K4 kissing-loop reporter,[1],52.8 nM
same,apparent KD of K4 kissing-loop reporter,[2],121 nM
AGUAUGUAAUAUGGCAUAUUUAGAACUGAAGGAGCGCCGAAUAAGGCAGGUAGGUCGCGGAAAUAUGAGUGAUGUUCAUGUUUAA [KL-SSArg-A25],apparent KD of K4 kissing-loop reporter,input ligand: FMN 200 uM,88 nM
same,apparent KD of K4 kissing-loop reporter,input ligand: arginine 13.2 mM,103 nM
same,apparent KD of K4 kissing-loop reporter,input ligand: none,101 nM
same,apparent KD of K4 kissing-loop reporter,[1],113 nM
same,apparent KD of K4 kissing-loop reporter,[2],82.8 nM
UUCUCUCAGGCACGCGAGUGAUGUUCGCGGCGAGGACCGGUACGGCCGCCACUCGCGCCUGAGAGAGGUUAUCAAAGAUAGCCUU [whbob_SS_tryp_A],apparent KD of K4 kissing-loop reporter,input ligand: FMN 200 uM,163 nM
same,apparent KD of K4 kissing-loop reporter,input ligand: arginine 13.2 mM,92.3 nM
same,apparent KD of K4 kissing-loop reporter,input ligand: none,94.7 nM
same,apparent KD of K4 kissing-loop reporter,[1],186 nM
same,apparent KD of K4 kissing-loop reporter,[2],208 nM
UAAUUUAUGUCUUUAAUUUUAUAAUCAGAUACCAGUGAUUUAUGACACCCUUGGCAGCUGUAUUGAGUGAUGUUCUUAUACUUAA [JR_Nu_ExcTheophyA_Sub022],apparent KD of K4 kissing-loop reporter,input ligand: FMN 200 uM,140 nM
same,apparent KD of K4 kissing-loop reporter,input ligand: arginine 13.2 mM,167 nM
same,apparent KD of K4 kissing-loop reporter,input ligand: none,175 nM
same,apparent KD of K4 kissing-loop reporter,[1],236 nM
same,apparent KD of K4 kissing-loop reporter,[2],99.3 nM
AAAUAUUGUUACCUGUUAACAUAGGGCCAACGAGGACCGGUACGGCCGCCACUCGUCUCAUAGCGAGUGAUGUUCGCACCGCCCA,apparent KD of K4 kissing-loop reporter,input ligand: FMN 200 uM,133 nM
same,apparent KD of K4 kissing-loop reporter,input ligand: arginine 13.2 mM,58.2 nM
same,apparent KD of K4 kissing-loop reporter,input ligand: none,76.6 nM
same,apparent KD of K4 kissing-loop reporter,[1],123 nM
same,apparent KD of K4 kissing-loop reporter,[2],126 nM
AAUAACUAGUAUAUUUUUAAUAAUACAGAUACCAGUGAUAAUAGACACCCUUGGCAGCUGAUCGAGUGAUGUUCGUUUAUUUUAA [#11 K4 Theophylline A Same State],apparent KD of K4 kissing-loop reporter,input ligand: FMN 200 uM,80.2 nM
same,apparent KD of K4 kissing-loop reporter,input ligand: arginine 13.2 mM,86.9 nM
same,apparent KD of K4 kissing-loop reporter,input ligand: none,85 nM
same,apparent KD of K4 kissing-loop reporter,[1],129 nM
same,apparent KD of K4 kissing-loop reporter,[2],64.7 nM
AGUUUAGAGUGACUCGAUAAGAGUCACAAACGAGGACCGGUACGGCCGCCACUCGAAAUAACGAGAGUGAUGUUCUCGCUGGGUA [FiskerMod 4 - Jieux - Same State Tryptophan A],apparent KD of K4 kissing-loop reporter,input ligand: FMN 200 uM,317 nM
same,apparent KD of K4 kissing-loop reporter,input ligand: arginine 13.2 mM,330 nM
same,apparent KD of K4 kissing-loop reporter,input ligand: none,342 nM
same,apparent KD of K4 kissing-loop reporter,[1],317 nM
same,apparent KD of K4 kissing-loop reporter,[2],93.3 nM
ACGUCAUAUGUAAUGGUGGUUUCGAUCGAUACCAGUAGCGAGAGUUACCCUUGGCAGCGACAUGAGUGAUGUUCAUGUAUGAAGA [KL-XTheo-A2 #analogue],apparent KD of K4 kissing-loop reporter,input ligand: FMN 200 uM,116 nM
same,apparent KD of K4 kissing-loop reporter,input ligand: arginine 13.2 mM,109 nM
same,apparent KD of K4 kissing-loop reporter,input ligand: none,107 nM
same,apparent KD of K4 kissing-loop reporter,[1],120 nM
same,apparent KD of K4 kissing-loop reporter,[2],105 nM
UGUGUUUACCUGACUCAGUGAUGUUGAGAAGGAGCGUGGGAAACCACAGGUAGGUCGCUCAACCUAAAUUCAGGUGAGCACUAAA,apparent KD of K4 kissing-loop reporter,input ligand: FMN 200 uM,327 nM
same,apparent KD of K4 kissing-loop reporter,input ligand: arginine 13.2 mM,219 nM
same,apparent KD of K4 kissing-loop reporter,input ligand: none,399 nM
same,apparent KD of K4 kissing-loop reporter,[1],303 nM
same,apparent KD of K4 kissing-loop reporter,[2],231 nM
AGCAGCAAAUCCUAGUGAUGUUAGGAUAUGUAGGAUAUCGGGAUACCGAGAAGGACAGAAGGAGGAGUGAUGUUCCUAAGCUGCA [FmnAX 24 #DoubleAptamer #DoubleK4 #SwitchBubble],apparent KD of K4 kissing-loop reporter,input ligand: FMN 200 uM,143 nM
same,apparent KD of K4 kissing-loop reporter,input ligand: arginine 13.2 mM,112 nM
same,apparent KD of K4 kissing-loop reporter,input ligand: none,114 nM
same,apparent KD of K4 kissing-loop reporter,[1],122 nM
same,apparent KD of K4 kissing-loop reporter,[2],107 nM
AGUGAUGUGGGAAGGAGCGGUUAAUGAAUUCAGUGAUGUUGAAGUGAUGCUGAAAUGAUGUGCCAGGUAGGUCGCCUAGAUGUUA [KL-XARG B28],apparent KD of K4 kissing-loop reporter,input ligand: FMN 200 uM,308 nM
same,apparent KD of K4 kissing-loop reporter,input ligand: arginine 13.2 mM,164 nM
same,apparent KD of K4 kissing-loop reporter,input ligand: none,245 nM
same,apparent KD of K4 kissing-loop reporter,[1],164 nM
same,apparent KD of K4 kissing-loop reporter,[2],203 nM
AUAUGCAGGAGAAGGAGCGUCGUUUCAAGUGAUGUUUGCAAGCGAGCUUACUAUAUAAGACGACAGGUAGGUCGCUCCUGCGUAA [#06 K4 Arginine B Exclusion],apparent KD of K4 kissing-loop reporter,input ligand: FMN 200 uM,166 nM
same,apparent KD of K4 kissing-loop reporter,input ligand: arginine 13.2 mM,150 nM
same,apparent KD of K4 kissing-loop reporter,input ligand: none,155 nM
same,apparent KD of K4 kissing-loop reporter,[1],141 nM
same,apparent KD of K4 kissing-loop reporter,[2],149 nM
UUAGAGAUCUCAGGAUAUCAGUGAUGUUGUAAUCCAGAUCUGAGAUAGAAUUCUAUCUCAGAUCAAUGAGAAGGGAGAUCUCAUU [AK4.2 Exc FMN B],apparent KD of K4 kissing-loop reporter,input ligand: FMN 200 uM,306 nM
same,apparent KD of K4 kissing-loop reporter,input ligand: arginine 13.2 mM,601 nM
same,apparent KD of K4 kissing-loop reporter,input ligand: none,723 nM
same,apparent KD of K4 kissing-loop reporter,[1],576 nM
same,apparent KD of K4 kissing-loop reporter,[2],591 nM
AUGAGGUGACUAAAUAAUAAGGGAAUUGAUACCAGACAGAAUUCUGUCCCUUGGCAGCAGUGAUGUUGUUGCAAGUCAGCUCAAA [AK1.1 Exc Theophylline A],apparent KD of K4 kissing-loop reporter,input ligand: FMN 200 uM,265 nM
same,apparent KD of K4 kissing-loop reporter,input ligand: arginine 13.2 mM,186 nM
same,apparent KD of K4 kissing-loop reporter,input ligand: none,206 nM
same,apparent KD of K4 kissing-loop reporter,[1],198 nM
same,apparent KD of K4 kissing-loop reporter,[2],212 nM
GGUAGCAUGGCGGCCGCCACUACAAGUAGUGACCCAAGUGAUGUUUGGAAGCGGGUCCUAAUUGGUAGGACCGGGCCAUGCUACC,apparent KD of K4 kissing-loop reporter,input ligand: FMN 200 uM,509 nM
same,apparent KD of K4 kissing-loop reporter,input ligand: arginine 13.2 mM,502 nM
same,apparent KD of K4 kissing-loop reporter,input ligand: none,496 nM
same,apparent KD of K4 kissing-loop reporter,[1],401 nM
same,apparent KD of K4 kissing-loop reporter,[2],566 nM
UUAUCACCCUAAGGAUAUAGCUAAGUGAUGUUUAGCUCGUCGCAGGGUAAACACUAGGCCCAAAGGCUAGAAGGUAGCUGGUACC [theeternabot_exclusion_KL_FMN_B_35],apparent KD of K4 kissing-loop reporter,input ligand: FMN 200 uM,70.6 nM
same,apparent KD of K4 kissing-loop reporter,input ligand: arginine 13.2 mM,66.9 nM
same,apparent KD of K4 kissing-loop reporter,input ligand: none,74 nM
same,apparent KD of K4 kissing-loop reporter,[1],81.3 nM
same,apparent KD of K4 kissing-loop reporter,[2],69.6 nM
